Experimental data as given in patent US9580460B2, “Discordant helix stabilization for prevention of amyloid formation” (AlphaBeta AB, priority 2000, dated 2017).

Legend:
Aβ(1-40) [1] = biological target: T1, Aβ(1-40) (Homo sapiens, UniProt P05067); assay: Fibril formation by Aβ(1-40) with tripeptide ligand, electron microscopy; type: biochemical; conditions: 100 μM Aβ(1-40), 1 mM ligand peptide, three days at 37° C., PBS pH 7.4, electron microscopy, semi quantitative
T1 construct: purchased Research Genetics, Huntsville, Ala., USA; host or cells: chemical synthesis
Protocol: (§1) Synthetic peptides corresponding to human Aβ fragments 1-40 (amino acid sequence […]; SEQ ID NO:3), 12-24. and 14-23 were purchased from Research Genetics, Huntsville, Ala., USA. Aβ(1-40) was purified by reverse-phase HPLC over a C18 column, using a linear gradient of acetonitrile running into 0.1% trifluoroacetic acid for elution. The purified peptide was lyophilized, stored at −20° C. and dissolved shortly before experiments. The tripeptides and tetrapeptides were synthesized and purified by reverse-phase HPLC (>70% purity) by Interactiva, Darmstadt, Germany
(§2) The relative abundance and morphology of fibrils was determined by electron microscopy after incubating each of the three Aβ peptides (100 μM) for three days at 37° C. in phosphate buffered saline (50 mM sodium phosphate/150 mM NaCl, pH 7.4) in the presence of 1 mM of a specific tripeptide or tetrapeptide ligand. Aggregates were collected by centrifugation at 20,000×g for 20 minutes. The pellets were suspended in a small volume of water by low-energy sonication for 5 seconds. Aliquots of 8 μl were placed on electron microscopy grids covered by a carbon-stabilized formvar film. Excess fluid was withdrawn after 30 seconds, and after air-drying the grids were negatively stained with 2% uranyl acetate in water. The stained grids were examined and photographed in a Philips CM120TWIN electron microscope operated at 80 kV. For a semi quantitative evaluation of the amount of material in the different specimens, the grids (50 mesh) were first scanned at low magnification and the number of larger fibril bundles per grid square estimated. The specimens were subsequently examined at high magnification to judge the size of the fibril bundles, the presence of smaller fibril aggregates, and the morphology of the individual fibrils.

Aβ(1-40) [2] = biological target: T1, Aβ(1-40); assay: Time-dependent aggregation of Aβ(1-40), amount left in solution after 20,000 xg centrifugation; type: biochemical; conditions: in the presence of the peptide; Aβ(1-40) left in solution after 20,000 xg centrifugation
Excerpt: The effects of the peptides KAD, AAA, and KFFE (SEQ ID NO:1) on the time-dependent aggregation of Aβ(1-40), determined as the amount of Aβ(1-40) left in solution after 20,000 xg centrifugation, were studied. In the presence of AAA, Aβ(1-40) completely aggregated in 10-15 days. In the presence of KAD, Aβ(1-40) completely aggregated in 30-40 days. In the presence of KFFE (SEQ ID NO:1), Aβ(1-40) completely aggregated in about 3 days (FIG. 8).

[3] = conditions where Aβ(1-42) readily forms fibrils; Tjernberg et al. 1996, 1999; cited from earlier work
Aβ(14-23) = biological target: T2, Aβ(14-23) (Homo sapiens, UniProt P05067); assay: Fibril formation by Aβ(14-23) with tripeptide or tetrapeptide ligand, electron microscopy; type: biochemical; conditions: for reduction of Aβ fibrillation or aggregation: summary statement, Aβ peptide not specified (FIG. 7: Aβ(14-23)); for density of Aβ(14-23) fibrils (fibril formation): 100 μM Aβ(14-23), 1 mM ligand peptide, three days at 37° C., PBS pH 7.4, electron microscopy, semi quantitative
T2 construct: 12-24. and 14-23 were purchased from Research Genetics; purchased Research Genetics, Huntsville, Ala., USA; host or cells: chemical synthesis
Protocol: as §1, §2

Aβ(1-40) [4] = biological target: T1, Aβ(1-40); assay: Fibril morphology of Aβ(1-40) in the presence of peptides, electron microscopy; type: biochemical; conditions: in the presence of the peptide, compared with AAA or acetyl-AAA-amide
Protocol: as §2

Aβ(12-24) = biological target: T3, Aβ(12-24) (Homo sapiens, UniProt P05067); assay: Fibril formation by Aβ(12-24) with tripeptide ligand, electron microscopy; type: biochemical; conditions: 100 μM Aβ(12-24), 1 mM ligand peptide, three days at 37° C., PBS pH 7.4, electron microscopy, semi quantitative
T3 construct: 12-24. and 14-23 were purchased from Research Genetics; purchased Research Genetics, Huntsville, Ala., USA; host or cells: chemical synthesis
Protocol: as §1
as §2, with “Excess fluid was withdrawn after 30 seconds, and after air-drying the grids were negatively stained with 2% uranyl acetate in water. The stained grids were examined and photographed in a Philips CM120TWIN electron microscope operated at 80 kV.” left out, “The specimens were subsequently examined at high magnification to judge the size of the fibril bundles, the presence of smaller fibril aggregates, and the morphology of the individual fibrils.” left out

[5] = Fibril formation of proteins with long discordant helices, electron microscopy of 20,000×g pellets; type: physicochemical; conditions: 10 μM to 100 μM in phosphate buffered saline pH 7.4, 37° C., three days
Excerpt: The proteins used in these experiments included SP-C (lung SP-C forms amyloid in pulmonary alveolar proteinosis) purified from porcine lungs (Curstedt et al, 1987, Eur. J. Biochem. 168:255-262). PolyVal→polyLeu substituted SP-C (SP-C(Leu)) analogue was synthesized as described by Nilsson et al. (1998, Eur. J. Biochem, 255:116-124) was used in the experiments as was D-analyl-D-alanine transpeptidase from Streptomyces R61 was obtained from Drs. Frére and Joris, University of Liege, Belgium (Frere et al, 1973, Biochem. J. 135:463-468). Triacylglycerol lipase from Candida antarctica and human coagulation factor XIII were purchased from Sigma. For these fibrillation studies the latter three proteins were dissolved in phosphate buffered saline, pH 7.4, in concentrations ranging from 10 μM to 100 μM. SP—C and SP-C (Leu) were dissolved at 100 μM or 250 μM in chloroform/methanol/0.1 M HCl, 32:64:5 (by volume).
To assay for the formation of fibrils, the protein solutions were incubated at 37° C. for three days, then centrifuged at 20,000×g for 20 minutes. The concentrations of SP-C and SP-C(Leu) in the supernatants were determined by amino acid analysis of triplicate samples. Peptide concentration at start of the incubations was 250 μM for SP-C(Leu) and 100 μM for SP-C. […]

T1 sequence (P05067 672-711): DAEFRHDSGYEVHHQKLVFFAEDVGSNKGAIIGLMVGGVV

Row | Substance | density of Aβ(1-40) fibrils (fibril formation) (Aβ(1-40) [1]) | time until Aβ(1-40) completely aggregated (Aβ(1-40) [2]) | density of Aβ(14-23) fibrils (fibril formation) (Aβ(14-23)) | other results
1 | AAA | no significant effect | 10 to 15 days | – | –
2 | Aβ(1-28) with alanine substitutions at positions 16, 17, and 20: Aβ(1-28) variant K16A, L17A, F20A (DAEFRHDSGYEVHHQAAVFAAEDVGSNK; Amyloid-beta protein 42; UniProt P05067 672-699, looked up, variant K16A L17A F20A) | – | – | – | fibril formation of the Aβ analogue itself [3]: does not form fibrils
3 | KAAE (Synthetically generated peptide) [dipolar tetrapeptide KAAE] | – | – | – | reduction of Aβ fibrillation or aggregation (Aβ(14-23)): did not reduce
4 | KAD | significant reduction of fibril density | 30 to 40 days | significant reduction of fibril density | morphology of Aβ(1-40) fibrillar structures (Aβ(1-40) [4]): much shorter and more dispersed; density of Aβ(12-24) fibrils (fibril formation) (Aβ(12-24)): significant reduction of fibril density
5 | KFD [dipolar tripeptide, central Ala of KAD replaced with Phe] | – | – | reduced Aβ(14-23) fibril formation, but to a lesser extent than KAD | –
6 | KFFE (Synthetically generated peptide) [dipolar tetrapeptide KFFE] | – | about 3 days | slightly promote fibril formation | reduction of Aβ fibrillation or aggregation (Aβ(14-23)): did not reduce
7 | acetyl-AAA-amide | no significant effect | – | – | –
8 | acetyl-KAD-amide (Ac-Lys-Ala-Asp-NH2) | equally efficient in reducing Aβ(1-40) fibril formation as the KAD peptide with free termini | – | – | morphology of Aβ(1-40) fibrillar structures (Aβ(1-40) [4]): much shorter and more dispersed
9 | coagulation factor XIII: human coagulation factor XIII, purchased from Sigma | – | – | – | fibril formation of the protein itself [5]: form fibrils
10 | unsubstituted Aβ(1-28): positions 1-28 of human Aβ | – | – | – | fibril formation of the Aβ analogue itself [3]: forms fibrils
